Test results reported in patent US20260115250A1 (CHARACTER BIOSCIENCES, published 2026).

Columns and labels:
[1] = target: ATP binding cassette subfamily A member 1 (ABCA1), endogenous in ARPE-19 cells (human, UniProt O95477 1-2261); assay: cell-based or functional assay
[2] = target: ABCA1, endogenous in J774 murine macrophage cells (murine, UniProt P41233 1-2261); assay: cell-based or functional assay
[3] = target: T1, Low Density Lipoprotein Receptor (LDLR), recombinant (UniProt P01130 22-788, limits assumed); assay: SPR multi-cycle kinetics, immobilized LDLR, high surfactant preparation (HBS-P+), 1:1 model
T1 construct: also called Recombinant LDLR
Description: The table shown in FIG. 23 illustrates LDLR binding data (SPR), using a high surfactant preparation. Recombinant LDLR was diluted in 10 mM acetate buffer pH 4.5 and amine coupled to a CM5 chip at 1000 RU. Peptides were diluted to 5 μM in running buffer (HBS-P+, 1 mM CaCl2) and serially diluted 1:3 for 5 total concentrations. […] Between cycles, the chip surface was regenerated with 3 injections of 50 mM NaOH/100 mM EDTA. Multi-Cycle Kinetics was performed on a Biacore Insight Evaluation Software and binding kinetics were analyzed with a 1:1 binding model.

[4] = target: T1, Low Density Lipoprotein Receptor …; assay: SPR multi-cycle kinetics, immobilized LDLR, low-surfactant preparation (HBS-P), peptide:DMPC complex against peptide alone
Description: Recombinant LDLR was diluted in 10 mM acetate buffer pH 4.5 and amine coupled to a CM5 chip at 1000 RU. Peptides were diluted to 5 μM in running buffer (HBS-P, 1 mM CaCl2) and serially diluted 1:3 for 5 total concentrations. In a separate preparation, peptides were diluted to 1 μM in running buffer containing 25 μM DMPC and serially diluted 1:3 for 5 total concentrations in running buffer. Peptide: DMPC complexes were incubated for 1 hour prior to use. […] Between cycles, the chip surface was regenerated with 3 injections of 50 mM NaOH/100 mM EDTA. Multi-Cycle Kinetics was performed on a Biacore Insight Evaluation Software and binding kinetics were analyzed with a 1:1 binding model.

ATP binding cassette subfamily A member 1 (ABCA1), endogenous in ARPE-19 cells, sequence (O95477 whole entry): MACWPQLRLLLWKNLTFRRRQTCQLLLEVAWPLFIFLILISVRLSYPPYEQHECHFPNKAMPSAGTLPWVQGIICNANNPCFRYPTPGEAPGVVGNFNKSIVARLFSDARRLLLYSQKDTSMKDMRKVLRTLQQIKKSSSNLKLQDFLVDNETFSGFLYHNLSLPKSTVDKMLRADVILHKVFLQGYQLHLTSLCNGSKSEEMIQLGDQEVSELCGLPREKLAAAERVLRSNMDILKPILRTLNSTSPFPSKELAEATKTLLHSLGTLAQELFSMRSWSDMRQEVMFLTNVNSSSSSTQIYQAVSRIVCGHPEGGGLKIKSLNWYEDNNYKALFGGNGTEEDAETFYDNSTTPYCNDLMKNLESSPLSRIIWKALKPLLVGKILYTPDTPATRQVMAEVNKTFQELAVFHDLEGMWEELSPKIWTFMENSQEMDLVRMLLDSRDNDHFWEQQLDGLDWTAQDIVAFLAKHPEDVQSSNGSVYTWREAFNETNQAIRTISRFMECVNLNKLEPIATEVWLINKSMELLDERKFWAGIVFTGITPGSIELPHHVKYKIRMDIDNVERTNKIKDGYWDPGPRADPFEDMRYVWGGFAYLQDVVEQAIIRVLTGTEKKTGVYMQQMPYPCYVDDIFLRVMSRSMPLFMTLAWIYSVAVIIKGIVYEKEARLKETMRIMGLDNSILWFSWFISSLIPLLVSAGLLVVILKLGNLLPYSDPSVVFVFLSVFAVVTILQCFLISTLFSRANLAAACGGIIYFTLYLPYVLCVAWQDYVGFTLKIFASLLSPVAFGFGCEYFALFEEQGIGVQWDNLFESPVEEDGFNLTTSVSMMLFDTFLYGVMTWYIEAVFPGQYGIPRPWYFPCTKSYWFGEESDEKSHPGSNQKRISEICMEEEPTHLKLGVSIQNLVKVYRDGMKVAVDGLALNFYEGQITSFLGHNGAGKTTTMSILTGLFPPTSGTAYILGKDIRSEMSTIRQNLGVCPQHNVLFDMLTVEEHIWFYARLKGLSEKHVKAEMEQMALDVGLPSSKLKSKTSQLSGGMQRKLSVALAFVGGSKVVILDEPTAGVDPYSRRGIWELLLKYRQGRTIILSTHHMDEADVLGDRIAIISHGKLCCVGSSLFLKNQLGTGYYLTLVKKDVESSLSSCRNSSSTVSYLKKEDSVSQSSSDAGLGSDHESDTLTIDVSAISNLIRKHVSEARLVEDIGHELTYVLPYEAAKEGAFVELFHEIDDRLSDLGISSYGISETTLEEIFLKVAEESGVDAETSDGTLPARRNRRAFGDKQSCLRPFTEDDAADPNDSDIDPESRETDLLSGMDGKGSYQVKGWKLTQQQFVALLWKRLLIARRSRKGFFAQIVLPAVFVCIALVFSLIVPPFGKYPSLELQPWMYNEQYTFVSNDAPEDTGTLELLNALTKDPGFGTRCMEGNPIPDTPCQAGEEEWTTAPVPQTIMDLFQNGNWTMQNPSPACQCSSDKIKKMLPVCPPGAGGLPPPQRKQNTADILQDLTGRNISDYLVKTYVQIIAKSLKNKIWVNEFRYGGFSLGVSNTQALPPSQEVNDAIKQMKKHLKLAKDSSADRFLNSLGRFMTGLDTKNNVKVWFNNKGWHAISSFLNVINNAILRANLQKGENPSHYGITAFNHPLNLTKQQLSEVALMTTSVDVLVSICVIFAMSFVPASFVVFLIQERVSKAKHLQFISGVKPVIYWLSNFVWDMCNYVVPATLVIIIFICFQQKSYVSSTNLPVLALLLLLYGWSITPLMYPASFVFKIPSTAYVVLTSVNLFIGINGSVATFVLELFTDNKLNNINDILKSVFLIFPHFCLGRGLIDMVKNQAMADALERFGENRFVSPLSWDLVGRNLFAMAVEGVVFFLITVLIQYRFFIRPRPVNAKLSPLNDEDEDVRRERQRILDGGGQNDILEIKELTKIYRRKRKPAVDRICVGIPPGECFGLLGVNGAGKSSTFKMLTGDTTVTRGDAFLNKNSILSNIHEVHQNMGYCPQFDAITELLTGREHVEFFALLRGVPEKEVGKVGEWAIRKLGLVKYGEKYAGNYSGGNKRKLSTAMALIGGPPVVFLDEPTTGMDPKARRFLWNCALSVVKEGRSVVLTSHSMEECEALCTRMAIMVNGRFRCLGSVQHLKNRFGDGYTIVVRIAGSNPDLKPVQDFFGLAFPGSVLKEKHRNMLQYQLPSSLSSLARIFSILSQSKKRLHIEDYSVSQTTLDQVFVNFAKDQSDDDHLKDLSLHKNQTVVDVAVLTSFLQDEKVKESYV
ABCA1, endogenous in J774 murine macrophage cells, sequence (P41233 whole entry): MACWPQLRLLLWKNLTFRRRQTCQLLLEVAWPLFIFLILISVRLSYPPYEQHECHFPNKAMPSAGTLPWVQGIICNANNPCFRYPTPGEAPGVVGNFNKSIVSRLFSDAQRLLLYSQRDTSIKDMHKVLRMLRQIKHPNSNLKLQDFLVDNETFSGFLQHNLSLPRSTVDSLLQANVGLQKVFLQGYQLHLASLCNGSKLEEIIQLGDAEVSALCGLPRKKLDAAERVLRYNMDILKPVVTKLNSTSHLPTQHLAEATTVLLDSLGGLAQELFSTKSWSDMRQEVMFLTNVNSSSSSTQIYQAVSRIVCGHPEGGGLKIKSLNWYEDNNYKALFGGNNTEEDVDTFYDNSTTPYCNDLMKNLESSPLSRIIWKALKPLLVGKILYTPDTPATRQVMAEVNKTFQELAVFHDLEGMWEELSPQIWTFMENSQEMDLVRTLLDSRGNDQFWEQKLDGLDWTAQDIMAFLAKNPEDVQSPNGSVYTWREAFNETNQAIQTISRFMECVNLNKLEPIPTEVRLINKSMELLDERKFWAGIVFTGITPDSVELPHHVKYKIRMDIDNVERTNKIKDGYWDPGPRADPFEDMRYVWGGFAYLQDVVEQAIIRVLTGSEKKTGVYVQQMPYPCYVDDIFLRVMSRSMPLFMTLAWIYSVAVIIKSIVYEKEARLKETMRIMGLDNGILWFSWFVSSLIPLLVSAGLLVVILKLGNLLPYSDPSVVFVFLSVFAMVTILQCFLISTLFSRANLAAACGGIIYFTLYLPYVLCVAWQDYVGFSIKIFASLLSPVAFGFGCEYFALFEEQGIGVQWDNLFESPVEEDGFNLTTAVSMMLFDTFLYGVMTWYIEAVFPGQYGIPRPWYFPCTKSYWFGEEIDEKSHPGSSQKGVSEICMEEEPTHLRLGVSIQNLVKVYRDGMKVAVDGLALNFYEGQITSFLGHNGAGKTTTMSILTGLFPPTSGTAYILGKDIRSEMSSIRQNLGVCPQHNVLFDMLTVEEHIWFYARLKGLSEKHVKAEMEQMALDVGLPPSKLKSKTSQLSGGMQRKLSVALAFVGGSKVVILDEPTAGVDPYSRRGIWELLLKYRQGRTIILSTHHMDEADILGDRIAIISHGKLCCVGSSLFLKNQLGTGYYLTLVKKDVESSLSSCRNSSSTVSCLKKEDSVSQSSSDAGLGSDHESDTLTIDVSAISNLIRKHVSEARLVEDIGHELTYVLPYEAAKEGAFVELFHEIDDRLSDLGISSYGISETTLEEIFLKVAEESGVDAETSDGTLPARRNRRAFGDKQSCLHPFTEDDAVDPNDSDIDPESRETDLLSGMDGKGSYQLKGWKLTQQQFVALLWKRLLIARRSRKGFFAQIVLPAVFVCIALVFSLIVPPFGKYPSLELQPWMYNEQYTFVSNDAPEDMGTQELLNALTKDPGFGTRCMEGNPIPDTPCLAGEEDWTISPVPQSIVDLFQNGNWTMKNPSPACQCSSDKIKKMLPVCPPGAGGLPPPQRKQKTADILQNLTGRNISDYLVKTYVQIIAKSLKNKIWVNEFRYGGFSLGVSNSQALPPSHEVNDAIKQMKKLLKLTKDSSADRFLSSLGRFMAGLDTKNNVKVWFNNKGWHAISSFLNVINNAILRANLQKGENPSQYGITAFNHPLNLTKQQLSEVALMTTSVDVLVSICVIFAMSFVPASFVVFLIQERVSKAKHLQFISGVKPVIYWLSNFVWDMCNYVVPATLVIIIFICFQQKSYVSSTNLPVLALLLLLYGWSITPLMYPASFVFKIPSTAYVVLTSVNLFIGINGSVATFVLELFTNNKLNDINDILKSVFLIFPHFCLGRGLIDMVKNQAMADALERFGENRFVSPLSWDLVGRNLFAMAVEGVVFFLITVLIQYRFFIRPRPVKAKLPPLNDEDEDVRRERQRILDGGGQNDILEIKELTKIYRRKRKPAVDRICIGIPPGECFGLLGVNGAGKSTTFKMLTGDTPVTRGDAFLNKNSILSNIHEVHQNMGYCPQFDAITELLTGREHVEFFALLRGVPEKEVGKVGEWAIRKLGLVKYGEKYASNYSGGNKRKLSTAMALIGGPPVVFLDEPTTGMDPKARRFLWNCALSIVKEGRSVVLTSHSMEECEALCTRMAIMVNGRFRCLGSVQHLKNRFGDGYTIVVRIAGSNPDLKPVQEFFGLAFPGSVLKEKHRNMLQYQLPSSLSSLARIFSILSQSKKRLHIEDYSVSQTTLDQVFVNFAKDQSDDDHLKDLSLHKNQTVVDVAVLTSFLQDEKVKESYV

Binder	EC50, membrane ABCA1 stability in ARPE-19 cells treated with mCRP (western blot) [1]	EC50, membrane ABCA1 stability in J774 cells (western blot of membrane ABCA1 after 8-Br-cAMP washout) [2]	Kd [3]	change in LDLR binding in the presence of DMPC lipid [4]
DAWERFRALFKELADYFR [T-087]	4.6 µM	1.51 µM		
T-117 (peptide) peptide: RSGADALESALKELKRFIREWTLGQSTEELRVRLASHLRKLRKRLLRDADDLQKRLAVYQA				> 2 fold
LVQYRGEVQAMLGQSTEELRVRLASHLRKLRKRLLRDADDLQKRLAVYQA [T-070]				> 2 fold
LASHLRKLRKRLLRDGDKLQDRLAEYQARAKEAFDR [T-048]			< 10 µM	
T-113 (peptide) peptide: WKDFGERVERALREQFEDLGQSTEELRVRLASHLRKLRKRLLRDADDLQKRLAVYQA			< 10 µM	> 2 fold
LASHLRKLRKRLLRDADDLQKRLAVYQAGAREGAER [T-046]			< 10 µM	
RSGADALESALKELKRFIREWT [T-101]	3.5 µM	3.7 µM		
LASHLRKLRKRLLRSLVSQYFQTVTDYGKDLM [T-065]			< 10 µM	> 2 fold
HLRKLRKRLLRSLVSQYRQTVTDYGKDL [T-110]			< 10 µM	> 2 fold
HLRKLRKRLLRDGDKLQDRLAEYQARAKEAFDR [T-040]			< 10 µM	
HLRKLRKRLLRDGDKLQDRLAEYQARAREAFDR [T-055]			< 10 µM	
HLRRLRRRLLRDGDKLQDRLAEYQARAKEAFDR [T-041]			< 10 µM	
HLRKLRKRLLRDADDLQKRLAEYQARAKEAFDR [T-064]			< 10 µM	
HLRKLRKRLLRDGDKLQKRLAEYQARAKEAFDR [T-052]			< 10 µM	
HLRKLVKRLFRDGDKLQDRLAEYQARAKEAFDR [T-059]			< 10 µM	

The next lines start with the values.

EC50, membrane ABCA1 stability in ARPE-19 cells treated with mCRP (western blot) [1]	EC50, membrane ABCA1 stability in J774 cells (western blot of membrane ABCA1 after 8-Br-cAMP washout) [2]	Kd [3]	change in LDLR binding in the presence of DMPC lipid [4]	Binder
		< 10 µM	> 2 fold	T-068 (peptide) peptide: MEDVRGRLVQYRGEVQAMLGQSTEELRVRLASHLRKLRKRLLRDADDLQKRLAVYQA
		< 10 µM		LARHLRKLRKRLARDGDKLQDRLAEYQARAKEAFDR [T-049]
		< 10 µM	> 2 fold	T-115 (peptide) peptide: DHINKVQRKVTHEIERLFLGQSTEELRVRLASHLRKLRKRLLRDADDLQKRLAVYQA
		< 10 µM		T-069 (peptide) peptide: VRGRLVQYRGEVQAMLGQSTEELRVRLASHLRKLRKRLLRDADDLQKRLAVYQA
		< 10 µM	> 2 fold	T-112 (peptide) peptide: YKDFGERVERALGRQLEMLGQSTEELRVRLASHLRKLRKRLLRDADDLQKRLAVYQA
		< 10 µM	> 2 fold	T-114 (peptide) peptide: LKDFGERVARALREQFEDLGQSTEELRVRLASHLRKLRKRLLRDADDLQKRLAVYQA
		< 10 µM		LARHLRKLRKRLARDADDLQKRLAVYQAGAREGAER [T-047]
		< 10 µM	> 2 fold	LARHLRKLRKRLARSLVSQYFQTVTDYGKDLM [T-066]
		< 10 µM	> 2 fold	HLRKLVKRLLRSLVSQYRQTVTDYGEDL [T-111]
		< 10 µM	> 2 fold	HLRKLRKRLLRSLVSQYFQTVTDYGKDL [T-109]
		< 10 µM	> 2 fold	T-116 (peptide) peptide: DAWERFRALFKELADYFRLGQSTEELRVRLASHLRKLRKRLLRDADDLQKRLAVYQA
		< 10 µM		HLRKLRKRLLRDGDKLYDRLAEYYARAKEAFDR [T-062]
